Usually Kd stands for a measure of binding affinity in units of concentration. A low value points to higher affinity.

The assay concerns the target T1, His-FliM (E. coli W3110, UniProt P06974 1-334).
T1 sequence (looked up): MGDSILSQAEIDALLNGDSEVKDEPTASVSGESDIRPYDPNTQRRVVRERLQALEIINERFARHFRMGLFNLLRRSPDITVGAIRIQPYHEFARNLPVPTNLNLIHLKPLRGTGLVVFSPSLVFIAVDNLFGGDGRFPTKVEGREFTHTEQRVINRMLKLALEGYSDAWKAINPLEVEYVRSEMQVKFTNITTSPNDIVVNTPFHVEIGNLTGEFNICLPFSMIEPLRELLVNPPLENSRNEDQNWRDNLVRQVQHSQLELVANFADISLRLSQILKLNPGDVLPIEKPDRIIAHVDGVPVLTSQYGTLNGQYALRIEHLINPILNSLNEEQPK
The experiment in a line: SPR. In general terms: Surface plasmon resonance follows binding to a sensor surface in real time, without labels.

B1: CheY-His (natural protein, E. coli W3110)
chain: ADKELKFLVVDDFSTMRRIVRNLLKELGFNNVEEAEDGVDALNKLQAGGYGFVISDWNMPNMDGLELLKTIRADGAMSALPVLMVTAEAKKENIIAAAQAGASGYVVKPFTAATLEEKLNKIFEKLGM
Molecule B1 gave a dissociation constant (Kd) of 1.63 µM.

B2: AcCheY-His (natural protein, E. coli W3110)
chain: ADKELKFLVVDDFSTMRRIVRNLLKELGFNNVEEAEDGVDALNKLQAGGYGFVISDWNMPNMDGLELLKTIRADGAMSALPVLMVTAEAKKENIIAAAQAGASGYVVKPFTAATLEEKLNKIFEKLGM
modifications: acetyl-lysine at 91 and 109 (found by LC-MS/MS)
For B2, the Kd was 9.4 µM.
